Results published in IntAct's records for PubMed 23108047.

B1: Coiled-coil domain-containing protein 6 (Homo sapiens), Q16204 (parent)
chain: MADSASESDTDGAGGNSSSSAAMQSSCSSTSGGGGGGGGGGGGGKSGGIVISPFRLEELTNRLASLQQENKVLKIELETYKLKCKALQEENRDLRKASVTIQARAEQEEEFISNTLFKKIQALQKEKETLAVNYEKEEEFLTNELSRKLMQLQHEKAELEQHLEQEQEFQVNKLMKKIKKLENDTISKQLTLEQLRREKIDLENTLEQEQEALVNRLWKRMDKLEAEKRILQEKLDQPVSAPPSPRDISMEIDSPENMMRHIRFLKNEVERLKKQLRAAQLQHSEKMAQYLEEERHMREENLRLQRKLQREMERREALCRQLSESESSLEMDDERYFNEMSAQGLRPRTVSSPIPYTPSPSSSRPISPGLSYASHTVGFTPPTSLTRAGMSYYNSPGLHVQHMGTSHGITRPSPRRSNSPDKFKRPTPPPSPNTQTPVQPPPPPPPPPMQPTVPSAATSQPTPSQHSAHPSSQP

Columns and labels:
Conditions in all cases: with fbxw7_human FBXW7, Q969H0
Sequence of fbxw7_human FBXW7, Q969H0 (Q969H0 whole entry): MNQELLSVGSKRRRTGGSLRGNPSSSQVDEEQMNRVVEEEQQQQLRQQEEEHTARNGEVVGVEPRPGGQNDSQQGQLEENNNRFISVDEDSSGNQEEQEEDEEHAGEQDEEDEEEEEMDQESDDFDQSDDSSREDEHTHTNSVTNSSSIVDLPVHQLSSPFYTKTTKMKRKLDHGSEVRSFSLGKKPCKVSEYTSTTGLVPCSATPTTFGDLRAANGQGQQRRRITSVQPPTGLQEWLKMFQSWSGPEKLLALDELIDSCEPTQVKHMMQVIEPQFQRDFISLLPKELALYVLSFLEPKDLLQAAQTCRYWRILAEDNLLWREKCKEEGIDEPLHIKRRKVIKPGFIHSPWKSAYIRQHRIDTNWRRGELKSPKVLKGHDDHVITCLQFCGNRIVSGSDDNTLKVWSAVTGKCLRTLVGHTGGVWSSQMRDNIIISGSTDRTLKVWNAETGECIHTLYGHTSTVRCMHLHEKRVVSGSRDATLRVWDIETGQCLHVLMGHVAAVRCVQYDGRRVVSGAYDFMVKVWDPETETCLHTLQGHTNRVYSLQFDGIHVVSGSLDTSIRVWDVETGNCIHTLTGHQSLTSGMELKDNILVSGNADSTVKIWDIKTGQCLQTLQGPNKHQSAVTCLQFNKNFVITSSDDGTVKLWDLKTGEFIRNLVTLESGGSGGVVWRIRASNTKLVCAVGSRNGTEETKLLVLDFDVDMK

[1] = variants of: B1
[2] = variants of: B1; remark: listed apart in the source
[3] = variants of: B1; remark: listed apart in the source
[4] = variants of: B1; remark: listed apart in the source
[5] = variants of: B1; remark: listed apart in the source

| Variant | effect of a mutation on the interaction [1] | effect of a mutation on the interaction [2] | effect of a mutation on the interaction [3] | effect of a mutation on the interaction [4] | effect of a mutation on the interaction [5] |
| --- | --- | --- | --- | --- | --- |
| MADSASESDTDGAGGNSSSSAAMQSSCSSTSGGGGGGGGGGGGGKSGGIVISPFRLEELTNRLASLQQENKVLKIELETYKLKCKALQEENRDLRKASVTIQARAEQEEEFISNTLFKKIQALQKEKETLAVNYEKEEEFLTNELSRKLMQLQHEKAELEQHLEQEQEFQVNKLMKKIKKLENDTISKQLTLEQLRREKIDLENTLEQEQEALVNRLWKRMDKLEAEKRILQEKLDQPVSAPPSPRDISMEIDSPENMMRHIRFLKNEVERLKKQLRAAQLQHSEKMAQYLEEERHMREENLRLQRKLQREMERREALCRQLSESESSLEMDDERYFNEMSAQGLRPRTVSSPIPYTPAPSSSRPISPGLSYASHTVGFTPPTSLTRAGMSYYNSPGLHVQHMGTSHGITRPSPRRSNSPDKFKRPTPPPSPNTQTPVQPPPPPPPPPMQPTVPSAATSQPTPSQHSAHPSSQP [S359A] | disrupting interaction | decreasing interaction | – | – | – |
| MADSASESDTDGAGGNSSSSAAMQSSCSSTSGGGGGGGGGGGGGKSGGIVISPFRLEELTNRLASLQQENKVLKIELETYKLKCKALQEENRDLRKASVTIQARAEQEEEFISNTLFKKIQALQKEKETLAVNYEKEEEFLTNELSRKLMQLQHEKAELEQHLEQEQEFQVNKLMKKIKKLENDTISKQLTLEQLRREKIDLENTLEQEQEALVNRLWKRMDKLEAEKRILQEKLDQPVSAPPSPRDISMEIDSPENMMRHIRFLKNEVERLKKQLRAAQLQHSEKMAQYLEEERHMREENLRLQRKLQREMERREALCRQLSESESSLEMDDERYFNEMSAQGLRPRTVSSPIPYTPSPSSSRPISPGLSYASHTVGFTPPTSLTRAGMSYYNSPGLHVQHMGTSHGITRPAPRRSNSPDKFKRPTPPPSPNTQTPVQPPPPPPPPPMQPTVPSAATSQPTPSQHSAHPSSQP [S413A] | disrupting interaction | – | decreasing interaction | – | – |
| MADSASESDTDGAGGNSSSSAAMQSSCSSTSGGGGGGGGGGGGGKSGGIVISPFRLEELTNRLASLQQENKVLKIELETYKLKCKALQEENRDLRKASVTIQARAEQEEEFISNTLFKKIQALQKEKETLAVNYEKEEEFLTNELSRKLMQLQHEKAELEQHLEQEQEFQVNKLMKKIKKLENDTISKQLTLEQLRREKIDLENTLEQEQEALVNRLWKRMDKLEAEKRILQEKLDQPVSAPPSPRDISMEIDSPENMMRHIRFLKNEVERLKKQLRAAQLQHSEKMAQYLEEERHMREENLRLQRKLQREMERREALCRQLSESESSLEMDDERYFNEMSAQGLRPRTVSSPIPYTPSPSSSRPISPGLSYASHTVGFTPPTSLTRAGMSYYNSPGLHVQHMGTSHGITRPSPRRSNSPDKFKRPAPPPSPNTQTPVQPPPPPPPPPMQPTVPSAATSQPTPSQHSAHPSSQP [T427A] | disrupting interaction | – | – | decreasing interaction | – |
| MADSASESDTDGAGGNSSSSAAMQSSCSSTSGGGGGGGGGGGGGKSGGIVISPFRLEELTNRLASLQQENKVLKIELETYKLKCKALQEENRDLRKASVTIQARAEQEEEFISNTLFKKIQALQKEKETLAVNYEKEEEFLTNELSRKLMQLQHEKAELEQHLEQEQEFQVNKLMKKIKKLENDTISKQLTLEQLRREKIDLENTLEQEQEALVNRLWKRMDKLEAEKRILQEKLDQPVSAPPSPRDISMEIDSPENMMRHIRFLKNEVERLKKQLRAAQLQHSEKMAQYLEEERHMREENLRLQRKLQREMERREALCRQLSESESSLEMDDERYFNEMSAQGLRPRTVSSPIPYTPSPSSSRPISPGLSYASHTVGFTPPTSLTRAGMSYYNSPGLHVQHMGTSHGITRPSPRRSNSPDKFKRPTPPPSPNAQTPVQPPPPPPPPPMQPTVPSAATSQPTPSQHSAHPSSQP [T434A] | – | – | – | – | disrupting interaction |
